{"source": "paper PMC3019263", "about": "(Archives of biochemistry and biophysics, 2010)", "proteins": {"B1": {"name": "PheH117, the regulatory domain of rat phenylalanine hydroxylase, lacking residues after Thr117 (domain or fragment, UniProt P04176 1-117, looked up)", "chain": "MAAVVLENGVLSRKLSDFGQETSYIEDNSNQNGAISLIFSLKEEVGALAKVLRLFEENDINLTHIESRPSRLNKDEYEFFTYLDKRTKPVLGSIIKSLRNDIGATVHELSRDKEKNT"}}, "biological_target": "the molecule itself", "test": "SEC", "data": [{"protein": "B1", "values": [{"measurement": "stoichiometry N", "result": 2}]}]}
